Assay results from doi:10.1101/2020.03.30.016147.

Legend:
[1] = biological target: C4BP-ANG1 (human) (UniProt P04003); test: negative-stain electron microscopy
[2] = biological target: C4BP-ANG1 (human) (UniProt P04003); test: non-reducing SDS-PAGE
[3] = biological target: ANG1-C4BP (human) (UniProt Q15389); test: non-reducing SDS-PAGE

| Substance | stoichiometry N [1] | stoichiometry N [2] | stoichiometry N [3] |
| --- | --- | --- | --- |
| C4BP-ANG1 (from UniProt P04003 541-597; Q15389-1 281-498) (ligand) | 7 | 7 |  |
| ANG1-C4BP (from UniProt Q15389-1 281-498; P04003 541-597) (ligand) |  |  | 7 |
